Our source for the Kd and IC50 values is patent publication US6946130 (GlaxoSmithKline, dated 2005).

The target of test [1] is T1, human interleukin 5 (recombinant human IL-5, expressed in Drosophila Schneider 2 cells) (human, UniProt P05113 20-134).
T1 construct: also called hIL-5
Put plainly: optical biosensor.

Test [2] has as its target T1, human interleukin 5 (recombinant human …). As to the kind of experiment: IL-5R alpha binding inhibition assay (125I-IL-5, Drosophila membranes). On the procedure: Assays with *Drosophila* membranes containing receptor were performed in MultiscreenGV™ plates (Millipore Corp., Bedford, Mass.) using *Drosophila* tissue culture medium M3 (Lindquist et al., *Drosophila Inf. Serv.*, 58: 163 (1982)) containing 25 mM HEPES buffer pH 7.2 and 0.1% BSA (Binding Buffer). Wells were pre-blocked with 0.1 ml binding buffer. […] After 20 minutes incubation at room temperature, 25 ul of the membrane extract of *Drosophila* S2 cells expressing the α-chain of the human IL5R was added to the wells. After 1 hour further incubation the membranes were collected by vacuum filtration and washed 3× with binding buffer. Filters were dried and counted.
The Fd and κ cDNAs of mAb (2B6) were isolated by PCR using the conditions described above. The gel-purified fragments were subcloned into the pMKFabGene3 vector which had been modified to include the hexa-His sequence 3' of the gene III cDNA, resulting in the plasmid pMKFabGene3H. A functional, IL-5 binding Fab clone containing the 2B6 heavy and light chains was identified by a colony lift assay. Upon removal gene III via Nhe I/SpeI I digestion and self-ligation the heavy chain was fused in frame to the hexa-His, allowing purification as described above.

B1: recombinant Fab containing the 2B6 heavy and light chains (Fd fused to hexa-His) (Fab)
heavy (part 1 of 2): QVQLKESGPGLVAPSQSLSITCTVSGFSLTSYSVHWVRQPPGKGLEWLGVIWASGGTDYNSALMSRLSISKDNSKSQVFLKLNSLQTDDTAMYYCARDPPSSLLRLDYWGQGTTLTVSS
heavy (part 2 of 2): HHHHHH
light: DIVMTQSPSSLSVSAGEKVTMSCKSSQSLLNSGNQKNYLAWYQQKPGQPPKLLIYGASTRESGVPDRFTGSGSGTDFTLSISSVQAEDLAVYYCQNVHSFPFTFGSGTELEIK
notes: Expressed in E. coli from pMKFabGene3H after removal of gene III; also called Fab fragment from 2B6; 2B6 Fab; not shown: murine CH1 (rest of the 2B6 Fd); murine kappa constant region
Take B1: the Kd in test [1] was roughly 0.09 nM. Further, in test [2], the IC50 is roughly 7.5 µg/mL.
